Results as given in publication PMC10643903 (Journal of Innate Immunity, 2022).
One block for each binder: values may come before it.

Legend:
[1] = target: recombinant full-length human C6 with a C-terminal 10xHis-tag (human, UniProt P13671 22-934); experiment: BLI
[2] = target: human C6 FIM1-2 fragment (residues 766–934) with an N-terminal 10xHis-tag (human, UniProt P13671 766-934); experiment: BLI
[3] = target: pig (Sus scrofa) C6 FIM1-2 fragment (Sus scrofa, UniProt A0SEH0); experiment: BLI
dog C6 FIM1-2 fragment = target: T1, dog C6 FIM1-2 fragment (Canis lupus familiaris); experiment: BLI
T1 chain: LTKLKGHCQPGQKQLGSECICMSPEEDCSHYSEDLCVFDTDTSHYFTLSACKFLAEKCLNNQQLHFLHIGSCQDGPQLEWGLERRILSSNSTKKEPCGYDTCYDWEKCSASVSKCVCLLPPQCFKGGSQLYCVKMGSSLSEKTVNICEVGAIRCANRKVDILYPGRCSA

[4] = target: Macaca C6 FIM1-2 fragment (Macaca fascicularis (entry of printed …, UniProt A0A2K5W3S5)); experiment: BLI
[5] = target: human C6 FIM1-2 fragment (residues 766–934) with an N-terminal 10xHis-tag (human, UniProt P13671); experiment: BLI
[6] = target: biotinylated AVI-tagged full-length human C6 (Homo sapiens, UniProt P13671, biotin on the AVI-tag (BirA ligase)); experiment: BLI
[7] = target: C6∆FIM1-2 (1–762) with a C-terminal His-tag (human, UniProt P13671); experiment: SEC
Sequence of C6∆FIM1-2 (1–762) with a C-terminal His-tag (P13671 22-762): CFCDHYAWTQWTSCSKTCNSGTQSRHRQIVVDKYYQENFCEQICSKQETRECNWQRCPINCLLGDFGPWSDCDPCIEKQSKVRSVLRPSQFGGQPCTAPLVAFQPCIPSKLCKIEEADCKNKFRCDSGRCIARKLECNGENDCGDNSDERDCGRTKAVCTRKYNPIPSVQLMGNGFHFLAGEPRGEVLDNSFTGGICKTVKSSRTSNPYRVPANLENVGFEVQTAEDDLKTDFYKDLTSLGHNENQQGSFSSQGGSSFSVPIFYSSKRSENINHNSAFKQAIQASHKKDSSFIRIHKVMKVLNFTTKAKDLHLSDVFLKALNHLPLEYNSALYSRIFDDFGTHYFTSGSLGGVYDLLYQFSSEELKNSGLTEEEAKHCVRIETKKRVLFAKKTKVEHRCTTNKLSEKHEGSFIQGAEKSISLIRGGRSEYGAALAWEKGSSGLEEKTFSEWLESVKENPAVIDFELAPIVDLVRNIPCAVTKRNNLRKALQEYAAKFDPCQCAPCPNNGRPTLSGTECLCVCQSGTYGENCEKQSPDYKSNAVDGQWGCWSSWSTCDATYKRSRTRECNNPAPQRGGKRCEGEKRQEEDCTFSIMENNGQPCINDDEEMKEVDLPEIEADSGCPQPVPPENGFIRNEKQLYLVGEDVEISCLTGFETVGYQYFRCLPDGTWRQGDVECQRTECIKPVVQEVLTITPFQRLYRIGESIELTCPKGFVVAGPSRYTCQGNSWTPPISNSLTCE

Sequence of human C6 FIM1-2 fragment (residues 766–934) with an N-terminal 10xHis-tag (human, UniProt P13671 766-934) (P13671 766-934): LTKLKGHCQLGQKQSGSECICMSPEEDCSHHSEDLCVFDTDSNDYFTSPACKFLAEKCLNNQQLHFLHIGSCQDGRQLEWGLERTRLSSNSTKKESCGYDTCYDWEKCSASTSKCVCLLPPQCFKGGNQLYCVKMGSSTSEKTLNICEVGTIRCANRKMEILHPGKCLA
Sequence of human C6 FIM1-2 fragment (residues 766–934) with an N-terminal 10xHis-tag (human, UniProt P13671) (P13671 766-934): as above
Sequence of recombinant full-length human C6 with a C-terminal 10xHis-tag (P13671 22-934): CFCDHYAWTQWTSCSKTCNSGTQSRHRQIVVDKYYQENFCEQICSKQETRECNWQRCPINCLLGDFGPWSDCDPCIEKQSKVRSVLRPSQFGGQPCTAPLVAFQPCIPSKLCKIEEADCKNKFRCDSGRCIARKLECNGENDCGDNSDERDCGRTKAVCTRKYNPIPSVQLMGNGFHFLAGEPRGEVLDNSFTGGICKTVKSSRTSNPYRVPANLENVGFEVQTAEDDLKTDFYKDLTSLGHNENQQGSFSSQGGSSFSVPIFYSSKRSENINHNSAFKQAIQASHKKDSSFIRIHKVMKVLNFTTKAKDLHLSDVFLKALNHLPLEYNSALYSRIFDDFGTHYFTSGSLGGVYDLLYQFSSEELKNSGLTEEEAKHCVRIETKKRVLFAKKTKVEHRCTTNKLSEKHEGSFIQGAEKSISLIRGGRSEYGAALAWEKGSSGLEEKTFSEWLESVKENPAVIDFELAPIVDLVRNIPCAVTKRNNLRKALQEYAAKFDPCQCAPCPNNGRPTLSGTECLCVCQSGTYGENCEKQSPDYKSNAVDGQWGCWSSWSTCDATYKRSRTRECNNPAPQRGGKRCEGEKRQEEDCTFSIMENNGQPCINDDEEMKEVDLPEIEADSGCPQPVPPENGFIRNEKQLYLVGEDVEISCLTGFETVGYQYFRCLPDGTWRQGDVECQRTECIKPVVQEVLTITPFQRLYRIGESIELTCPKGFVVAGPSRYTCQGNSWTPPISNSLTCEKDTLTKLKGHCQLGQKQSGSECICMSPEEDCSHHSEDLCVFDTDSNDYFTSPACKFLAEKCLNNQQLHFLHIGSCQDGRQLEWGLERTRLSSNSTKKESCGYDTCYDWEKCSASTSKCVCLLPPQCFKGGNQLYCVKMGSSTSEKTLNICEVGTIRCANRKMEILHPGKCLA
Sequence of biotinylated AVI-tagged full-length human C6 (P13671 22-934): as above

- Kd [1]: 10 to 20 nM
- Kd [2]: 5 nM
B1: human C5 C345c domain (residues 1528–1676) (domain or fragment, UniProt P01031 1528-1676, looked up)
chain: VEADCGQMQEELDLTISAETRKQTACKPEIAYAYKVSITSITVENVFVKYKATLLDIYKTGEAVAEKDSEITFIKKVTCTNAELVKGRQYLIMGKEALQIKYNFSFRYIYPLDSLTWIEYWPRDTTCSSCQAFLANLDEFAEDIFLNGC

- Kd [3]: ~5 nM
- Kd (dog C6 FIM1-2 fragment): ~5 nM
- Kd [4]: ~5 nM
- Kd [5]: 2.8 nM
- Kd [6]: 0.3 nM
B2: CP010 Fab (Fab, V domains shown)
VH: EVQLVESDGGLVQPGGSLKLSCAASGFTFSDYYMAWVRQGPGKGLEWVATINYDGSSTYYRESVKGRFTISRDNAKNTLYLQMNSLRAEDTATYYCARPSTEALFAYWGHGTLVTVSS
VL: DVVLTQTPSTLSVTPGQPASISCRSSQSLLNDVGNTYLYWYLQKPGQSPQLLIYLVSDLGSGVPNRFSGSGSGTDFTLKISRVEAEDVGIYYCMQASHAPYTFGQGTNLEIK

- binding result [7]: no binding
B3: CP010, fully humanized version of 7E5 with a human IgG4 S228P constant region (antibody, V domains shown)
VH: EVQLVESDGGLVQPGGSLKLSCAASGFTFSDYYMAWVRQGPGKGLEWVATINYDGSSTYYRESVKGRFTISRDNAKNTLYLQMNSLRAEDTATYYCARPSTEALFAYWGHGTLVTVSS
VL: DVVLTQTPSTLSVTPGQPASISCRSSQSLLNDVGNTYLYWYLQKPGQSPQLLIYLVSDLGSGVPNRFSGSGSGTDFTLKISRVEAEDVGIYYCMQASHAPYTFGQGTNLEIK
